Data on one substance can be found in US20200071775A1.

The target of this test is potato virus Y (PVY). Nature of the test: sandwich ELISA, PVY captured by PVY capture antibody (Agdia), phage at 3 µg/ml, anti-M13 HRP detection. (In general: ELISA stands for enzyme-linked immunosorbent assay.)

With “M13KO7 bacteriophage (from UniProt P69168 19-424; P69530 1-112; P69541 24-73)”, the improved sensitivity compared to the existing antibody (PVY detection antibody, Agdia) was found to be 25%.
